Data on five molecules can be found in paper PMC9482650, “Quantitative fragmentomics allow affinity mapping of interactomes” (Nature Communications, 2022).

Targets include CNKSR3, Q6P9H4; MAGIX, Q9H6Y5; PARD3B_3, Q8TEW8; RIMS2, Q9UQ26; SCRIB_4, Q14160; CARD14, Q9BXL6; GRIP2_2, Q9C0E4.
What all share (experiment): holdup assay
What all share (parameters): key: below the threshold = too weak to quantify, mostly under pKd 3.1 to 4
Common to all, as to conditions: plain residues with an end cap or a label only (N-terminal biotin on a linker: ttds)

A further assay deals with T1, APBA3_2, O96018.
T1 sequence (O96018 480-570, limits assumed, looked up): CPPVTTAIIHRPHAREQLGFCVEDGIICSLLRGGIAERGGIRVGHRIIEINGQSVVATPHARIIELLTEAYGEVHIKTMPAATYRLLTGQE

The next assay addresses T2, GIPC1, O14908.
T2 sequence (O14908 128-223, limits assumed, looked up): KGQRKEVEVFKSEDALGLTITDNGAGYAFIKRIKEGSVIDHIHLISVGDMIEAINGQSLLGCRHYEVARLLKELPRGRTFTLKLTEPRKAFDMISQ

For the next assay, the target named is T3, MLLT4, P55196.
T3 sequence (P55196 1002-1103, limits assumed, looked up): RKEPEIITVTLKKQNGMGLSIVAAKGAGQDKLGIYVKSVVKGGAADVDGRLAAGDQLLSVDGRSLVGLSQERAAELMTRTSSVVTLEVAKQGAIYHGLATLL

In another assay the target is T4, MPDZ_3, O75970.
T4 sequence (O75970 372-473, limits assumed, looked up): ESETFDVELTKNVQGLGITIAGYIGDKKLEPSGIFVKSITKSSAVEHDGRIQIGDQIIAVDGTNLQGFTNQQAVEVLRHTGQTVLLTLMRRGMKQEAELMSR

The target of another assay is T5, NHERF3_2, Q5T2W1.
T5 sequence (Q5T2W1 129-225, limits assumed, looked up): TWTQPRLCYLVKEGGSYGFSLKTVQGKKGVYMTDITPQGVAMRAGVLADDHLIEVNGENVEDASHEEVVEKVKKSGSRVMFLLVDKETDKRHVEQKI

For another assay, the target named is T6, PDZD11, Q5EBL8.
T6 sequence (Q5EBL8 42-139, limits assumed, looked up): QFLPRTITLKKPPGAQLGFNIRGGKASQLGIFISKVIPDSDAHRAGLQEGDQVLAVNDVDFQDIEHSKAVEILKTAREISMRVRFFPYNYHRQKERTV

The target in another assay is T7, PDZD2_3, O15018.
T7 sequence (O15018 581-682, limits assumed, looked up): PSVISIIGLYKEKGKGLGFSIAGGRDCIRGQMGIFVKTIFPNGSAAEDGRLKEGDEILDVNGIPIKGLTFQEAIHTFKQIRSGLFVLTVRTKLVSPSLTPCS

A further assay concerns the target T8, PDZD2_5, O15018.
T8 sequence (O15018 2617-2716, limits assumed, looked up): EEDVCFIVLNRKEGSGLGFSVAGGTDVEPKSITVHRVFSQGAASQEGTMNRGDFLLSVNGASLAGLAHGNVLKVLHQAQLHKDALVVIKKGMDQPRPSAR

The target of another assay is T9, PDZD4, Q76G19.
T9 sequence (Q76G19 125-224, limits assumed, looked up): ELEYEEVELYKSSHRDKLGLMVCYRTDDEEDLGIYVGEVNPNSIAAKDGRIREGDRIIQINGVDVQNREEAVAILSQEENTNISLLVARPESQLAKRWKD

The next assay addresses T10, PDZD8, Q8NEN9.
T10 sequence (Q8NEN9 361-459, limits assumed, looked up): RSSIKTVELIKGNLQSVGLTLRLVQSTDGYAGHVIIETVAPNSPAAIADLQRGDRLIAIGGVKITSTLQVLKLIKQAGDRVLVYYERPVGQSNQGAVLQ

The target of another assay is T11, PREX2_2, Q70Z35.
T11 sequence (Q70Z35 672-764, limits assumed, looked up): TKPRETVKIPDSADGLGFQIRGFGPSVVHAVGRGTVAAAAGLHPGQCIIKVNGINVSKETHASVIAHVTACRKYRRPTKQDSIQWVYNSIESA

The target in the next assay is T12, SHANK3, Q9BYB0.
T12 sequence (Q9BYB0 641-750, limits assumed, looked up): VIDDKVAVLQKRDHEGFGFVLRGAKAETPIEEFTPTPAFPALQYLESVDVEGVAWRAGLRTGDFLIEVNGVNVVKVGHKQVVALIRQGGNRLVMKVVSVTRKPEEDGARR

In a further assay the target is T13, TJP3_1, O95049.
T13 sequence (O95049 6-103, limits assumed, looked up): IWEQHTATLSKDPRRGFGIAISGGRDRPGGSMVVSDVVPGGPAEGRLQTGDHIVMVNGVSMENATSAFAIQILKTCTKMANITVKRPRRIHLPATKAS

Another assay addresses T14, USH1C_1, Q9Y6N9.
T14 sequence (Q9Y6N9 82-179, limits assumed, looked up): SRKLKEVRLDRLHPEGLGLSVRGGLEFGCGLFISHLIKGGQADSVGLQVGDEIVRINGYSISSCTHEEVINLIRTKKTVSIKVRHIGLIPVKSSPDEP

The target in a further assay is T15, USH1C_2, Q9Y6N9.
T15 sequence (Q9Y6N9 206-303, limits assumed, looked up): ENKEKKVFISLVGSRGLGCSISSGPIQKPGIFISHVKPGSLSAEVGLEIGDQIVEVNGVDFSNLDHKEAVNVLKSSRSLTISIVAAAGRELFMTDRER

Chain of PARD3B_3, Q8TEW8 (Q8TEW8 490-594): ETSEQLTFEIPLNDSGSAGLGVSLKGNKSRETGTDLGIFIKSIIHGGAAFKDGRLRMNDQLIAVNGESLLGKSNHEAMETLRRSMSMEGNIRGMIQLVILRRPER
Chain of CARD14, Q9BXL6 (Q9BXL6 558-663): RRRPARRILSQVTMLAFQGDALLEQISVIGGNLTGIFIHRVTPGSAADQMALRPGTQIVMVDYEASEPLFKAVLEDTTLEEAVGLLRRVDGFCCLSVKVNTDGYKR
Chain of GRIP2_2, Q9C0E4 (Q9C0E4 137-245): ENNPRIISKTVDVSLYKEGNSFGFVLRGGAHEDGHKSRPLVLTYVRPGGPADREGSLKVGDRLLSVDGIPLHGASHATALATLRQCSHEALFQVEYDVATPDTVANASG
Chain of RIMS2, Q9UQ26 (Q9UQ26 637-758): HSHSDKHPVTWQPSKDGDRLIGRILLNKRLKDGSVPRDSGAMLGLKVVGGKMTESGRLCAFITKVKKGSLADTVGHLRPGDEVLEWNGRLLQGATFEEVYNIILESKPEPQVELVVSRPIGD
Chain of MAGIX, Q9H6Y5 (Q9H6Y5 118-211): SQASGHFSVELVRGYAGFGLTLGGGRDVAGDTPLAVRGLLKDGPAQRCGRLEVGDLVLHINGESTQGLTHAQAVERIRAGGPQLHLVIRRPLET
Chain of CNKSR3, Q6P9H4 (Q6P9H4 203-303): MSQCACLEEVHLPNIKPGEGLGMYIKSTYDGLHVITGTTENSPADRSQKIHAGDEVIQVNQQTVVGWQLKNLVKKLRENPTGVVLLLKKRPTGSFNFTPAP
Chain of SCRIB_4, Q14160 (Q14160 1095-1204): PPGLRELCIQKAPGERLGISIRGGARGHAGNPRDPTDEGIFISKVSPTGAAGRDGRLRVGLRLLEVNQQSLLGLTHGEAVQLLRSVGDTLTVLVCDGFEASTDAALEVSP

The term pKd denotes the Kd on a negative log10 scale, so that one unit is a factor of ten. SGGKRKETLV [NET1, Q7Z628]: the pKd entry in the assay with APBA3_2, O96018 was “below the threshold”; in the assay with CNKSR3, Q6P9H4, “below the threshold”; with GIPC1, O14908, 4.28; with MAGIX, Q9H6Y5, “below the threshold”; with MLLT4, P55196, 4.02; in the assay with MPDZ_3, O75970 it was “below the threshold”. Also, the pKd result with NHERF3_2, Q5T2W1 is “below the threshold”; in the assay with PARD3B_3, Q8TEW8 it was “below the threshold”; in the assay with PDZD11, Q5EBL8, “below the threshold”; in the assay with PDZD2_3, O15018 it was “below the threshold”; with PDZD2_5, O15018 it was “below the threshold”; with PDZD4, Q76G19 it was 3.72. Further, the pKd result is “below the threshold” in the assay with PDZD8, Q8NEN9; 3.79 with PREX2_2, Q70Z35; “below the threshold” in the assay with RIMS2, Q9UQ26; “below the threshold” with SCRIB_4, Q14160; “below the threshold” with SHANK3, Q9BYB0; “below the threshold” in the assay with TJP3_1, O95049. Moreover, the pKd entry in the assay with USH1C_1, Q9Y6N9 is listed as “below the threshold”.
SSIDLWETAL [SLC15A5, A6NIM6]: the negative-log Kd (pKd) entry in the assay with APBA3_2, O96018 was “below the threshold”; with CARD14, Q9BXL6, “below the threshold”; with CNKSR3, Q6P9H4, “below the threshold”; with GIPC1, O14908, “below the threshold”; with GRIP2_2, Q9C0E4 it was “below the threshold”; with MAGIX, Q9H6Y5, “below the threshold”. Also, the pKd entry was “below the threshold” with MLLT4, P55196; 4.85 with MPDZ_3, O75970; “below the threshold” with NHERF3_2, Q5T2W1; “below the threshold” with PARD3B_3, Q8TEW8; “below the threshold” with PDZD11, Q5EBL8; 5.1 with PDZD2_3, O15018. Further, the pKd result with PDZD2_5, O15018 was “below the threshold”; with PDZD4, Q76G19 it was “below the threshold”; with PDZD8, Q8NEN9 it was “below the threshold”; with PREX2_2, Q70Z35 it was “below the threshold”; with RIMS2, Q9UQ26, “below the threshold”; in the assay with SCRIB_4, Q14160 it was 4.97. For the same molecule, the pKd is 6.63 in the assay with SHANK3, Q9BYB0; “below the threshold” in the assay with TJP3_1, O95049; 4.64 in the assay with USH1C_1, Q9Y6N9; “below the threshold” in the assay with USH1C_2, Q9Y6N9.
Take KLVIKTETTV [RASSF6, Q6ZTQ3]: the pKd entry in the assay with CARD14, Q9BXL6 was “below the threshold”; with CNKSR3, Q6P9H4 it was “below the threshold”; with GIPC1, O14908, 4.57; with GRIP2_2, Q9C0E4 it was “below the threshold”; with MAGIX, Q9H6Y5, “below the threshold”; in the assay with MLLT4, P55196 it was “below the threshold”. The pKd result is listed as “below the threshold” with MPDZ_3, O75970; “below the threshold” with NHERF3_2, Q5T2W1; “below the threshold” in the assay with PARD3B_3, Q8TEW8; “below the threshold” with PDZD11, Q5EBL8; “below the threshold” with PDZD2_3, O15018; “below the threshold” with PDZD2_5, O15018. The pKd entry is given as “below the threshold” with PDZD4, Q76G19; “below the threshold” with PDZD8, Q8NEN9; “below the threshold” with PREX2_2, Q70Z35; “below the threshold” in the assay with RIMS2, Q9UQ26; “below the threshold” in the assay with SCRIB_4, Q14160; “below the threshold” with SHANK3, Q9BYB0. Besides, the negative-log Kd (pKd) result was “below the threshold” with TJP3_1, O95049; “below the threshold” with USH1C_1, Q9Y6N9; “below the threshold” with USH1C_2, Q9Y6N9.
Consider PPRQRSETQV [HPV82-E6, Q9IR59], for which the pKd entry with APBA3_2, O96018 is “below the threshold”; with CARD14, Q9BXL6 it was “below the threshold”; with CNKSR3, Q6P9H4, “below the threshold”; with GIPC1, O14908, 4.27; with GRIP2_2, Q9C0E4 it was “below the threshold”; with MAGIX, Q9H6Y5 it was “below the threshold”. Also, the pKd result with MLLT4, P55196 is on record as “below the threshold”; with MPDZ_3, O75970, “below the threshold”; with NHERF3_2, Q5T2W1, “below the threshold”; with PARD3B_3, Q8TEW8, “below the threshold”; with PDZD11, Q5EBL8, “below the threshold”; with PDZD2_3, O15018 it was “below the threshold”. In addition, the pKd entry is listed as “below the threshold” with PDZD2_5, O15018; “below the threshold” with PDZD4, Q76G19; “below the threshold” with PDZD8, Q8NEN9; “below the threshold” with PREX2_2, Q70Z35; “below the threshold” with RIMS2, Q9UQ26; “below the threshold” with SCRIB_4, Q14160. Also, the pKd entry in the assay with SHANK3, Q9BYB0 is on record as “below the threshold”; in the assay with TJP3_1, O95049, “below the threshold”; with USH1C_1, Q9Y6N9 it was “below the threshold”; with USH1C_2, Q9Y6N9 it was “below the threshold”.
As for SRSRRRETAL [HPV33-E6, P06427], the pKd was 4.28 with APBA3_2, O96018; “below the threshold” with CARD14, Q9BXL6; “below the threshold” with CNKSR3, Q6P9H4; “below the threshold” with GIPC1, O14908; “below the threshold” with GRIP2_2, Q9C0E4; “below the threshold” in the assay with MAGIX, Q9H6Y5. The pKd entry was “below the threshold” with MLLT4, P55196; “below the threshold” with MPDZ_3, O75970; “below the threshold” with NHERF3_2, Q5T2W1; “below the threshold” in the assay with PARD3B_3, Q8TEW8; “below the threshold” in the assay with PDZD11, Q5EBL8; “below the threshold” in the assay with PDZD2_3, O15018. Besides, the pKd result was “below the threshold” with PDZD2_5, O15018; “below the threshold” with PDZD4, Q76G19; “below the threshold” with PDZD8, Q8NEN9; “below the threshold” in the assay with PREX2_2, Q70Z35; “below the threshold” with RIMS2, Q9UQ26; 4.24 with SCRIB_4, Q14160. Besides, the pKd result with SHANK3, Q9BYB0 is “below the threshold”; with TJP3_1, O95049 it was “below the threshold”; with USH1C_1, Q9Y6N9, “below the threshold”; with USH1C_2, Q9Y6N9, “below the threshold”.
